In patent US20090170750A1 (Novo Nordisk, published 2009):

Target: purified recombinant human insulin receptor-exon 11 (human) (UniProt P06213)
Assay: competition with 125I-insulin (SPA)

Chain of purified recombinant human insulin receptor-exon 11 (human) (P06213 other isoform, or with tags, fused parts or gaps limits assumed, form in doubt): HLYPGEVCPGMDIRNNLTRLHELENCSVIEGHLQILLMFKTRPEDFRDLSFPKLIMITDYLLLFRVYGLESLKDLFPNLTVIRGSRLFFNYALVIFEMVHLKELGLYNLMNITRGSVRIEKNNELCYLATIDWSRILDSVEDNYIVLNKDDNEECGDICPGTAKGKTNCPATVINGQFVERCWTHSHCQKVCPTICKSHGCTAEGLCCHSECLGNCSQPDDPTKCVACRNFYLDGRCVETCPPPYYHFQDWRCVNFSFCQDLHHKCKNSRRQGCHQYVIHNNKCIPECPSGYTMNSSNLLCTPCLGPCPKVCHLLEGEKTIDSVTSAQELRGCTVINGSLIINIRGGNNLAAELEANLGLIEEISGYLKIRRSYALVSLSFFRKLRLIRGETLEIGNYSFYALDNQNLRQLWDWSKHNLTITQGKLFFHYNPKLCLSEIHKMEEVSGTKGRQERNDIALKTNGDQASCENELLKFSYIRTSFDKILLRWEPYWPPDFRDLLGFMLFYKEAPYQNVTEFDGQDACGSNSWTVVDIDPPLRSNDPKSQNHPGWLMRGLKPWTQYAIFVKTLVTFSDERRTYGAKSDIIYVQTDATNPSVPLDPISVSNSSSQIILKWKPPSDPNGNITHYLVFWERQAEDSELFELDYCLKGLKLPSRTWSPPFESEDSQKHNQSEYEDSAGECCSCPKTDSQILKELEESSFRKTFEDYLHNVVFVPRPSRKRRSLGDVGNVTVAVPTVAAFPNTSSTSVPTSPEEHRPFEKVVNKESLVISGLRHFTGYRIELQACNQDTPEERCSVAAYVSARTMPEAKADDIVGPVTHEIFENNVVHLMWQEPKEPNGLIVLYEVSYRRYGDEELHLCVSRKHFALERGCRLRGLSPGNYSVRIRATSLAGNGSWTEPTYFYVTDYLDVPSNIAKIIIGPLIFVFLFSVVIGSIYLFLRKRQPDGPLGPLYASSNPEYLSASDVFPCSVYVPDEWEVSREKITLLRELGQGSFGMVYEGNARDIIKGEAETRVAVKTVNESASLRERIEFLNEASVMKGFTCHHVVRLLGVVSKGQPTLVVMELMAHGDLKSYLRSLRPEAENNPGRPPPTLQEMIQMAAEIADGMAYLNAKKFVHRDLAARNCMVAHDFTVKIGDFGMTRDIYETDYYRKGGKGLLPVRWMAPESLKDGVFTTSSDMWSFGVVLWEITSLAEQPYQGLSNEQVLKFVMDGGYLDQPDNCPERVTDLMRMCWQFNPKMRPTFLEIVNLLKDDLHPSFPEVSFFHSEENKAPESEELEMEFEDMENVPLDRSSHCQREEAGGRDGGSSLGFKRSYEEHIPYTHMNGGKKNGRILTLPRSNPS

Substance	IR, binding relative to human insulin
single-chain insulin PAK 1733, connecting peptide VGSSSGK [A21G] (from UniProt P01308 25-53; P01308 90-110) (ligand)	42%
single-chain insulin PAK 1789, connecting peptide VGLRSGK [A18Q_A21G] (from UniProt P01308 25-53; P01308 90-110) (ligand)	248%
single-chain insulin PAK 1802, connecting peptide AGRGK [A18Q_A21G] (from UniProt P01308 25-53; P01308 90-110) (ligand)	25%
single-chain insulin PAK 1762, connecting peptide AGMGSGP [A18Q_A21G] (from UniProt P01308 25-53; P01308 90-110) (ligand)	20%
single-chain insulin PAK 1769013, connecting peptide QVGSSSGK [A18Q_A21G] (from UniProt P01308 25-53; P01308 90-110) (ligand)	33%
single-chain insulin PAK 1811, connecting peptide TGLGSGK [A18Q_A21G] (from UniProt P01308 25-53; P01308 90-110) (ligand)	136%
single-chain insulin PAK 1791, connecting peptide HGLYSGK [A18Q_A21G] (from UniProt P01308 25-53; P01308 90-110) (ligand)	226%
single-chain insulin PAK 1788, connecting peptide VGLYSGK [A18Q_A21G] (from UniProt P01308 25-53; P01308 90-110) (ligand)	323%
single-chain insulin PAK 1790, connecting peptide VGLMSGK [A18Q_A21G] (from UniProt P01308 25-53; P01308 90-110) (ligand)	261%
single-chain insulin PAK 1866, connecting peptide VGLSSGQ [A18Q] (from UniProt P01308 25-53; P01308 90-110) (ligand)	196%
single-chain insulin PAK 1817, connecting peptide AGRGSGK [A21G] (from UniProt P01308 25-53; P01308 90-110) (ligand)	63%
single-chain insulin PAK 1808, connecting peptide AGRGSGK [B1G_B3Q_A18Q_A21G] (from UniProt P01308 25-53; P01308 90-110) (ligand)	86%
single-chain insulin PAK 1767, connecting peptide AGRGSGP [A18Q_A21G] (from UniProt P01308 25-53; P01308 90-110) (ligand)	28%
single-chain insulin PAK 1824, connecting peptide GRGSGK [B1G_B3Q_A18Q_A21G] (from UniProt P01308 25-53; P01308 90-110) (ligand)	75%
single-chain insulin PAK 1734, connecting peptide VGLSSGK [A21G] (from UniProt P01308 25-53; P01308 90-110) (ligand)	211%
single-chain insulin PAK 1740, connecting peptide VGSSSGK [B1G_B3Q_A18Q_A21G] (from UniProt P01308 25-53; P01308 90-110) (ligand)	90%
single-chain insulin PAK 1860, connecting peptide VGSSSGK [B3K_A18Q_A21G] (from UniProt P01308 25-53; P01308 90-110) (ligand)	83%
single-chain insulin PAK 1800, connecting peptide AGRGSGK [A18Q_A21G] (from UniProt P01308 25-53; P01308 90-110) (ligand)	175%
single-chain insulin PAK 1784, connecting peptide WASGSGK [A18Q_A21G] (from UniProt P01308 25-53; P01308 90-110) (ligand)	23%
single-chain insulin PAK 1769033, connecting peptide PVGSSSGK [A18Q_A21G] (from UniProt P01308 25-53; P01308 90-110) (ligand)	37%
single-chain insulin PAK 1796, connecting peptide AWSGSGK [A18Q_A21G] (from UniProt P01308 25-53; P01308 90-110) (ligand)	102%
single-chain insulin PAK 1880, connecting peptide VGLSSGQ [B1G_B3Q_A18Q_A21G] (from UniProt P01308 25-53; P01308 90-110) (ligand)	54%
single-chain insulin PAK 1810, connecting peptide TGLGSGQ [A18Q_A21G] (from UniProt P01308 25-53; P01308 90-110) (ligand)	73%
single-chain insulin PAK 1785, connecting peptide ASWGSGK [A18Q_A21G] (from UniProt P01308 25-53; P01308 90-110) (ligand)	136%

The next lines start with the values.

IR, binding relative to human insulin	Substance
82%	single-chain insulin PAK 1871, connecting peptide VGLSSGQ [B29A_A18K] (from UniProt P01308 25-53; P01308 90-110) (ligand)
113%	single-chain insulin PAK 1838, connecting peptide TGLGKGQ [B29R_A18Q] (from UniProt P01308 25-53; P01308 90-110) (ligand)
49%	single-chain insulin with connecting peptide LGSSGK (SEQ ID NO:113), no PAK number printed (from UniProt P01308 25-53; P01308 90-110) (ligand)
38%	single-chain insulin PAK 1876, connecting peptide VGLSSGQ [B27K_B29A_A18Q] (from UniProt P01308 25-53; P01308 90-110) (ligand)
34%	single-chain insulin with connecting peptide QGSSGK (SEQ ID NO:115), no PAK number printed (from UniProt P01308 25-53; P01308 90-110) (ligand)
35%	single-chain insulin PAK 1875, connecting peptide VGLSSGQ [B28K_B29A_A18Q] (from UniProt P01308 25-53; P01308 90-110) (ligand)
128%	single-chain insulin PAK 1821, connecting peptide TGLGSGK [B3Q_B29R_A18Q_A21G] (from UniProt P01308 25-53; P01308 90-110) (ligand)
36%	single-chain insulin with connecting peptide QGSSGK (SEQ ID NO:110), no PAK number printed (from UniProt P01308 25-53; P01308 90-110) (ligand)
82%	single-chain insulin PAK 1847, connecting peptide TGLGKGR [B27E_B29A_A18Q] (from UniProt P01308 25-53; P01308 90-110) (ligand)
83%	single-chain insulin PAK 1805, connecting peptide AGRGSGK [B3Q_A18Q_A21G] (from UniProt P01308 25-53; P01308 90-110) (ligand)
125%	single-chain insulin PAK 1818, connecting peptide KGLGSGQ [B3Q_B29R_A18Q_A21G] (from UniProt P01308 25-53; P01308 90-110) (ligand)
40%	single-chain insulin PAK 1848, connecting peptide TGLGKGR [B27E_B29E_A18Q] (from UniProt P01308 25-53; P01308 90-110) (ligand)
60%	single-chain insulin PAK 1849, connecting peptide TGLGKGR [B29E_A18Q] (from UniProt P01308 25-53; P01308 90-110) (ligand)
92%	single-chain insulin PAK 1846, connecting peptide TGLGKGR [B29A_A18Q] (from UniProt P01308 25-53; P01308 90-110) (ligand)
221%	single-chain insulin PAK 1855, connecting peptide VGLYSGK [B28D_A18Q] (from UniProt P01308 25-53; P01308 90-110) (ligand)
51%	single-chain insulin PAK 1893, connecting peptide TGLGSGQ [B10Q_A18Q] (from UniProt P01308 25-53; P01308 90-110) (ligand)
140%	single-chain insulin PAK 1877, connecting peptide TGLGSGK [B28D_A18Q] (from UniProt P01308 25-53; P01308 90-110) (ligand)
92%	single-chain insulin PAK 1879, connecting peptide VGLSSGQ [B29A_A18Q] (from UniProt P01308 25-53; P01308 90-110) (ligand)
37%	single-chain insulin PAK 1816, connecting peptide AGLGSGQ [B3Q_A18Q] (from UniProt P01308 25-53; P01308 90-110) (ligand)
40%	single-chain insulin PAK 1854, connecting peptide VGLYSGK [B29E_A18Q] (from UniProt P01308 25-53; P01308 90-110) (ligand)
23%	single-chain insulin with connecting peptide GGSSGK (SEQ ID NO:116), no PAK number printed (from UniProt P01308 25-53; P01308 90-110) (ligand)
